From patent US20120316071A1 (published 2012) come the findings set out here.

For assay [1], the target named is T1, rHuman CD44/Fc Chimera, CF (R&D Systems Cat#3660-CD) (human, UniProt P16070 21-220).
T1 construct: Bought reagent
The experiment in a line: MSD multispot ECL, antigen spotted, Fab 9.3 nM; blank spot 287.

Assay [2] has as its target T2, rHuman ErbB2/Fc Chimera, CF (R&D Systems Cat#1129-ER) (human, UniProt P04626 23-652).
T2 construct: Bought reagent; also called human epidermal growth factor 2 receptor
The assay is described as above.

Assay [3] deals with T3, rHuman HGF R/c-MET/Fc Chimera, CF (R&D Systems Cat#358-MT/CF) (human, UniProt P08581 25-932).
T3 construct: Bought reagent; also called HGF R/Fc; hepatocyte growth factor receptor
The assay is described as above.

Assay [4] addresses T4, rHuman EGF R/Fc Chimera, CF (R&D Systems Cat#344-ER) (human, UniProt P00533 25-645).
T4 construct: Bought reagent; also called epidermal growth factor receptor
The description is as above.

The target in assay [5] is T5, Recombinant Human DLL4 (R&D Systems Cat#1506-D4/CF) (human, UniProt Q9NR61 27-524).
T5 construct: Bought recombinant protein; also called rHuman DLL4; delta-like protein 4
The assay is described as above.

In assay [6] the target is T6, rHuman Erythropoietin R/Fc Chimera, CF (R&D Systems Cat#963-ER) (human, UniProt P19235 25-250).
T6 construct: Bought reagent; also called EPO R/Fc; Epo R
T6 sequence (looked up): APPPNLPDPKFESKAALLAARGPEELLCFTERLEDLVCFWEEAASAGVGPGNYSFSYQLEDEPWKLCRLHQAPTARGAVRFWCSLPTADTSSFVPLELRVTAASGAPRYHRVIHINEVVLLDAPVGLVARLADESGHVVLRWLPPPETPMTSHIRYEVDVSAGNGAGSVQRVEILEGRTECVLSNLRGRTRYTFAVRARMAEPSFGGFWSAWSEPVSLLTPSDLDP
The assay is described as above.

The target in assay [7] is T7, rHuman Notch-1/Fc Chimera, CF (R&D Systems Cat#3647-TK) (human, UniProt P46531 19-526).
T7 construct: Bought reagent
The description is as above.

Assay [8] addresses T8, rHuman IGF-1 sR, (IGF-1 sR), CF (R&D Systems Cat#391-GR) (human, UniProt P08069 31-932).
T8 construct: Bought soluble receptor; also called insulin-like growth factor-1 soluble receptor
The description is as above.

Assay [9] deals with T9, Recombinant Human DLL4 (R&D Systems Cat#1506-D4/CF) (human, UniProt Q9NR61 27-524).
T9 construct: Bought from R&D Systems; also called rHuman DLL4; delta-like protein 4
The experiment in a line: MSD multispot ECL, antigen spotted on plate, Fab 11 nM; blank spot 212.

In assay [10] the target is T10, rHuman Notch-1/Fc Chimera, CF (R&D Systems Cat#3647-TK) (human, UniProt P46531 19-526).
T10 construct: Bought from R&D Systems; not shown: Fc of the bought chimera
Described as above.

Assay [11] addresses T11, rHuman HGF R/c-MET/Fc Chimera, CF (R&D Systems Cat#358-MT/CF) (human, UniProt P08581 25-932).
T11 construct: Bought from R&D Systems; also called HGF R/Fc; hepatocyte growth factor receptor (HGF R/c-Met); not shown: Fc of the bought chimera
The description is as above.

Assay [12] concerns the target T12, rHuman IGF-1 sR, (IGF-1 sR), CF (R&D Systems Cat#391-GR) (human, UniProt P08069 31-932).
T12 construct: Bought soluble receptor; also called insulin-like growth factor-1 soluble receptor
Description: MSD Multispot ECL, antigen spotted on plate, Fab 130 nM; blank spot 1153.

Assay [13] deals with T13, rHuman Erythropoietin R/Fc Chimera, CF (R&D Systems Cat#963-ER) (human, UniProt P19235 25-250).
T13 construct: Bought reagent; also called EPO R/Fc; EPO R; Fc part of the bought chimera not given
T13 sequence (looked up): T6 sequence (looked up)
Described as above.

The target of assay [14] is T14, Recombinant Human DLL4 (R&D Systems Cat#1506-D4/CF) (human, UniProt Q9NR61 27-529).
T14 construct: Bought recombinant protein; also called rHuman DLL4; delta-like protein 4
The description is as above.

Assay [15] addresses T15, Recombinant Human DLL4 (R&D Systems Cat#1506-D4/CF) (human, UniProt Q9NR61 27-524).
T15 construct: Bought recombinant protein; also called rHuman DLL4; delta-like protein 4
The experiment in a line: MSD Multispot ECL, antigen spotted on plate, Fab at 60 nM; blank spot 237.

Assay [16] addresses T16, rHuman CD44/Fc Chimera, CF (R&D Systems Cat#3660-CD) (human, UniProt P16070 21-220).
T16 construct: Bought Fc chimera; Fc part of the bought chimera not given
The assay is described as above.

Assay [17] has as its target T17, rHuman P-Cadherin/Fc Chimera, CF (R&D Systems Cat#861-PC) (human, UniProt P22223 108-654).
T17 construct: Bought Fc chimera; Fc part of the bought chimera not given
Described as above.

The target in assay [18] is T18, rHuman Notch-1/Fc Chimera, CF (R&D Systems Cat#3647-TK) (human, UniProt P46531 19-526).
T18 construct: Bought Fc chimera; Fc part of the bought chimera not given
Described as above.

Assay [19] concerns the target T19, rHuman Erythropoietin R/Fc Chimera, CF (R&D Systems Cat#963-ER) (human, UniProt P19235 25-250).
T19 construct: Bought Fc chimera; also called EPO R/Fc; Epo R; Fc part of the bought chimera not given
T19 sequence (looked up): T6 sequence (looked up)
Described as above.

B1: Fab VH1-46_IGHD6-6*01_IGHJ1*01 & L6_IGKJ1*01 (Fab, V domains shown)
VH: QVQLVQSGAEVKKPGASVKVSCKASGYTFTSYYMHWVRQAPGQGLEWMGIINPSGGSTSYAQKFQGRVTMTRDTSTSTVYMELSSLRSEDTAVYYCAREEYSSSSAEYFQHWGQGTLVTVSS
VL: not shown
notes: Only variable domains are tied to the molecule; Tested as a Fab made in E. coli: heavy chain from Plasmid A (CH1 constant region, His6 and Flag tags), kappa light chain from Plasmid C (kappa CL); also called parent Hit Fab against DLL4; VH1-46_IGHD6-6*01_IGHJ1*01 & L6_IGKJ1*01 (parental)
On to B1, for which the ECL signal in assay [1] was 396 ECL signal; in assay [2], 354 ECL signal; in assay [3], 324 ECL signal; in assay [4] it was 424 ECL signal; in [5], 13200 ECL signal; in assay [6], 306 ECL signal. Further, the results for the ECL signal in assay [7] and in assay [8] were 492 ECL signal and 315 ECL signal, respectively.

B2: Fab VH1-46_IGHD3-10*01_IGHJ4*01 & B3_IGKJ1*01 (Fab, V domains shown)
VH: QVQLVQSGAEVKKPGASVKVSCKASGYTFTSYYMHWVRQAPGQGLEWMGIINPSGGSTSYAQKFQGRVTMTRDTSTSTVYMELSSLRSEDTAVYYCAREYYYGSGSYYNDYFDYWGQGTLVTVSS
VL: not shown
notes: Tested as a Fab made in E. coli; VH was cloned into Plasmid A (CH1 constant region, His6 and Flag tags); The kappa VL was cloned into Plasmid C (kappa CL)
As to B2, the figures for the ECL signal in [9], in [10] and in assay [11] were 254, 404 and 268, respectively.

B3: Fab VH1-8_IGHD2-2*01_IGHJ6*01 & L12_IGKJ1*01 (Fab, V domains shown)
VH: QVQLVQSGAEVKKPGASVKVSCKASGYTFTSYDINWVRQATGQGLEWMGWMNPNSGNTGYAQKFQGRVTMTRNTSISTAYMELSSLRSEDTAVYYCARGGYCSSTSCYADYYYYYGMDVWGQGTTVTVSS
VL: not shown
On to B3, for which the ECL signal was determined as 1970 in [12], 2150 in assay [13] and 7740 in assay [14].

B4: Fab VH6-1_IGHD3-3*01_IGHJ4*01 & V4-3_IGLJ4*01 (Fab, V domains shown)
VH: QVQLQQSGPGLVKPSQTLSLTCAISGDSVSSNSAAWNWIRQSPSRGLEWLGRTYYRSKWYNDYAVSVKSRITINPDTSKNQFSLQLNSVTPEDTAVYYCAREYYDFWSGYYTDYFDYWGQGTLVTVSS
VL: QPVLTQPTSLSASPGASARLTCTLRSGINLGSYRIFWYQQKPESPPRYLLSYYSDSSKHQGSGVPSRFSGSKDASSNAGILVISGLQSEDEADYYCMIWHSSASFVFGGGTQLIIL
notes: Tested as a purified germline Fab made in E. coli; The VH was cloned into plasmid A (CH1 constant region, His6 and Flag tags) and the lambda VL into plasmid E (lambda CL)
In the case of B4, the ECL signal in [15] was 875; in [16], 434; in assay [17], 372; in assay [18] it was 415; in assay [19], 423.
